“And” between values parts separate entries of the source, which are not always exact repeats. Equal values may be shown once.
Conditions: Escherichia coli (strain K12); pH 7.8; 25 °C; Urea; Absorbance; Potassium phosphate 10 mM; transition: 3; whole UniProt chain shown

B1: Tryptophan synthase alpha chain wild type, P0A877 (protein)
chain: MERYESLFAQLKERKEGAFVPFVTLGDPGIEQSLKIIDTLIEAGADALELGIPFSDPLADGPTIQNATLRAFAAGVTPAQCFEMLALIRQKHPTIPIGLLMYANLVFNKGIDEFYAQCEKVGVDSVLVADVPVEESAPFRQAALRHNVAPIFICPPNADDDLLRQIASYGRGYTYLLSRAGVTGAENRAALPLNHLVAKLKEYNAAPPLQGFGISAPDQVKAAIDAGAAGAISGSAIVKIIEQHINEPEKMLAALKVFVQPMKAATRS
denaturant m value: 2.2 kcal/mol/M and 1.2 kcal/mol/M
denaturant midpoint (higher = more stable): 2.62 M and 4.18 M
